This is an account of results in US8450280B2, “Activation of peptide prodrugs by hK2” (GenbSpera, Inc., priority 1999, dated 2013).

Common to all, as to assay: Kinetic constants of AMC substrate hydrolysis by hK2
What all share (format): biochemical, human
What all share (details): other: 50 mM Tris pH 7.5, 0.1 M NaCl, 0.2% BSA, 37° C., Lineweaver-Burk

Data set [1] concerns T1, Cc1cc(=O)oc2cc(NC(=O)[C@H](CCCNC(=N)N)NC(=O)[C@H](CCCNC(=N)N)NC(=O)[C@H](C)NC(=O)OCc3ccccc3)ccc12.
T1 construct: made in house
As to the method: (§1) The measurements were done with Fluoroscan II (Labsystems, Helsinki, Finland) using a 355 nm excitation filter and a 460 nm emission filter. The fluorescence of 7-amino-4-methylcoumarin (AMC) (Sigma, St. Louis, Mo., USA) was determined to be 700 FIU/nmol and this value was used in the calculations of the rate of product formation. Unless otherwise indicated all final analyses were performed in 200 μl of the buffer 50 mM Tris pH 7.5, 0.1 M NaCl, and 0.2% BSA at 37° C. using 1.6 pmol hK2. BSA was added to the reaction mixture in order to minimize adsorption of the enzyme to the walls of the microtiter wells. The amount of hK2 was quantified by a commercial PSA immunoassay (Prostatus, Wallac, Turku, Finland) with the Mabs H1 17 and H50 which recognize PSA and hK2 equally well (Lovgren et al., Biochem. Biophys. Res. Co., 213, 888-895 (1995)). Under the conditions described, 1.6 pmol of the hK2 preparation cleaved 50 pmol/min of the 100 μM substrate Pro-Phe-Arg-AMC (SEQ ID NO: 55). During the 20 minute measurement time the consumption of the substrates is <7% of their total amount and was not considered to affect the reaction rate. Initial analysis of the substrates were performed with 3.2 pmol hK2 at a substrate concentration of 250 μM. Km value for the substrates cleaved by hK2 at these conditions were determined using at least four substrate concentrations ranging from 0.2×Km to 5×Km. The Km and kcat values were calculated from Lineweaver-Burk plots.
(§2) Substrates ending in either arginine or lysine were tested. […] However, no hydrolysis of Arg-Gln-Arg-Arg-AMC (SEQ ID NO: 63) was detected. […] As with the semenogelins, hK2 also here cleaves substrates with Arg at position P1 and preferentially a large residue or another Arg at position P2. None of the substrates with lysine in the C-terminal position were cleaved.
(§3) The activity listed in Table 1 is hydrolytic activity of hK2 with 100 μM substrate in relation to the hydrolytic activity of hK2 with 100 μM of the tissue kallikrein substrate H-Pro-Phe-Arg-AMC (SEQ ID NO: 55). The entry “NR” means that no reaction was detected.

For data set [2], the system named is T2, Cc1cc(=O)oc2cc(NC(=O)[C@H](CCCNC(=N)N)NC(=O)[C@@H]3CCCN3C(=O)[C@@H](NC(=O)OC(C)(C)C)C(C)C)ccc12.
T2 construct: made in house
The procedure:
as §1, §2, §3

In data set [3] the test system is T3, Cc1cc(=O)oc2cc(NC(=O)[C@H](CCCNC(=N)N)NC(=O)[C@H](CC(C)C)NC(=O)[C@H](CC(C)C)NC(=O)OCc3ccccc3)ccc12.
T3 construct: made in house
The procedure: as §1, §2, §3

Data set [4] concerns T4, Cc1cc(=O)oc2cc(NC(=O)[C@H](CCCNC(=N)N)NC(=O)[C@H](Cc3ccccc3)NC(=O)[C@@H]3CCCN3)ccc12.
T4 construct: made in house
The procedure:
as §1, §2, §3

In general, Km refers to the concentration of substrate that gives half-maximal velocity. The term kcat denotes the maximal rate divided by the concentration of active sites. Usually kcat/Km stands for the turnover number divided by the Michaelis constant. In the case of recombinant hK2 (Homo sapiens), the Km in data set [1] came out at 20 µM; in data set [2], 48 µM; in data set [3], 71 µM; in data set [4], 40 µM. Moreover, the kcat in data set [1] worked out at 0.12 s⁻¹; in data set [2], 0.0267 s⁻¹; in data set [3], 0.04 s⁻¹; in data set [4], 0.917 s⁻¹. Besides, the kcat/Km in data set [1] came to 6000 M⁻¹ s⁻¹; in data set [2], 567 M⁻¹ s⁻¹; in data set [3], 567 M⁻¹ s⁻¹; in data set [4] it was 22900 M⁻¹ s⁻¹.
